According to patent publication US20200339648A1 (University of Washington, published 2020):

T1: human IL-2Rβγc on human cells (YT-1 NK cells) (human, UniProt P14784 27-551; P31785 23-369)
T1 sequence (looked up) 1: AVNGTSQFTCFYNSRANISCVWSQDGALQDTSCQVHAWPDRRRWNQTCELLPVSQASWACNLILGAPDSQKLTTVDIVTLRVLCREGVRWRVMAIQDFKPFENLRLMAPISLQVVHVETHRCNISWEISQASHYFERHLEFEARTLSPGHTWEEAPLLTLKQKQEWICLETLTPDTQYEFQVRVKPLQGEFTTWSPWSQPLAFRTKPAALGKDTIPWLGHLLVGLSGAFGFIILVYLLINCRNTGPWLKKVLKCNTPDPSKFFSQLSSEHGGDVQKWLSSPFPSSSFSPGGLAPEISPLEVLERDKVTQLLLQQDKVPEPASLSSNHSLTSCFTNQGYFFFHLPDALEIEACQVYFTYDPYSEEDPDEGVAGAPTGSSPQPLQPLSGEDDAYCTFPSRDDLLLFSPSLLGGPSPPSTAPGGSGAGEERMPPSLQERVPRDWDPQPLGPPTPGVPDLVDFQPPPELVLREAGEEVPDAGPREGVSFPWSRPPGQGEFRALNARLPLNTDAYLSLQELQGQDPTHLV
T1 sequence (looked up) 2: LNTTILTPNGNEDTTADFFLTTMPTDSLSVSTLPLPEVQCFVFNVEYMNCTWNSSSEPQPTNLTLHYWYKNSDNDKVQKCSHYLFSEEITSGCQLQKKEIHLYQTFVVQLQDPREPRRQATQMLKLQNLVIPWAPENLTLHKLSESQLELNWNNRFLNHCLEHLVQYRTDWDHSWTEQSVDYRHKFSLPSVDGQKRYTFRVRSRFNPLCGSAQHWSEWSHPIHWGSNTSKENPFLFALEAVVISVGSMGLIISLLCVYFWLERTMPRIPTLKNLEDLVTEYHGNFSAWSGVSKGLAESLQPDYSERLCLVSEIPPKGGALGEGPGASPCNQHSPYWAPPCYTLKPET

T2: mouse IL-2Rβγc on murine cells (CTLL-2 T cells, primary CD4+ T cells) (mouse, UniProt P16297 27-539; P34902 23-369)
T2 sequence (looked up) 1: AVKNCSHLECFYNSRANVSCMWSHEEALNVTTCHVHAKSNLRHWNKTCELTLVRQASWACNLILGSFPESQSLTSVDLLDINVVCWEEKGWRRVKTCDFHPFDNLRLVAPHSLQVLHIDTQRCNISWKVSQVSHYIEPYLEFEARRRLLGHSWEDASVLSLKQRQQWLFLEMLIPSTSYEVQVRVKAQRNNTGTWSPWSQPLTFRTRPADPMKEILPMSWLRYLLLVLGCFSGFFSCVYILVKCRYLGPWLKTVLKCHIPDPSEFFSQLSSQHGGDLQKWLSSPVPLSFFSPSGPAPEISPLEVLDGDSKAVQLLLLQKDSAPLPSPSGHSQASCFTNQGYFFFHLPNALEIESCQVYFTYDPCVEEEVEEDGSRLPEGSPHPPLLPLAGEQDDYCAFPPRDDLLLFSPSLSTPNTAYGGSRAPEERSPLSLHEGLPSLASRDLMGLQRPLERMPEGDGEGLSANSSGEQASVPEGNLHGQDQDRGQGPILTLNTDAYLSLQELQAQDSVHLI
T2 sequence (looked up) 2: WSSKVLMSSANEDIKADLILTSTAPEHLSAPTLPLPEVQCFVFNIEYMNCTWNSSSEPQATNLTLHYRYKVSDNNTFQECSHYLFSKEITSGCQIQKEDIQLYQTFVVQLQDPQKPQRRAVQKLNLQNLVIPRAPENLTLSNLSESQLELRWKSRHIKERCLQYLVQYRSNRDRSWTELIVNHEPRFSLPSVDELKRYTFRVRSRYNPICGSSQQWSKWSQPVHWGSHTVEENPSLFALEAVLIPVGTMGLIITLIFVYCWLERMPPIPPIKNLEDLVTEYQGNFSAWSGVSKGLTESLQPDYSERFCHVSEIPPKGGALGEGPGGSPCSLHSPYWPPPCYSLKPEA

T3: human IL-2 receptor β subunit (hIL-2Rβ) (human, UniProt P14784 27-240, biotin on the C-terminal biotin acceptor peptide)
T3 construct: Biotinylated and immobilised on streptavidin; also called HsIL-2Rβ; human IL-2Rβ
T3 sequence: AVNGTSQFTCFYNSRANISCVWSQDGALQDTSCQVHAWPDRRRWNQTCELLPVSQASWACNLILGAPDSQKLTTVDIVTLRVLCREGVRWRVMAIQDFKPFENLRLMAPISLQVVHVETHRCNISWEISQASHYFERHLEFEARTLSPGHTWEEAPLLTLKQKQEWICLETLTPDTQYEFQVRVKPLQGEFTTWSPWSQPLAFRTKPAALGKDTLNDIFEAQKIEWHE

T4: mouse IL-2 receptor β subunit (mIL-2Rβ) (mouse, UniProt P16297 27-240, biotin on the C-terminal biotin acceptor peptide)
T4 construct: extracellular domain; Biotinylated form for SPR; also called MmIL-2Rβ; murine IL-2Rβ
T4 sequence: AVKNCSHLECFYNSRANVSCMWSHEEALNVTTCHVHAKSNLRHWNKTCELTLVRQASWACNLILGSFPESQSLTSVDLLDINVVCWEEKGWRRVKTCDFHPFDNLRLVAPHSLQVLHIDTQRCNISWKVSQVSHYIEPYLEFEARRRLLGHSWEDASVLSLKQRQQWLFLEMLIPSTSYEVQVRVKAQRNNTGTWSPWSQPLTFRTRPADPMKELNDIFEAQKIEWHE

B1: mouse interleukin-2 (mIL-2) (ligand, UniProt P04351 21-169, looked up)
chain: APTSSSTSSSTAEAQQQQQQQQQQQQHLEQLLMDLQELLSRMENYRNLKLPRMLTFKFYLPKQATELKDLQCLEDELGPLRHVLDLTQSKSFQLEDAENFISNIRVTVVKLKGSDNTFECQFDDESATVVDFLRRWIAFCQSIISTSPQ
notes: range 1-149; Baculovirus expression for SPR; also called MmIL-2; mouse IL-2
B2: G1_neo2_40_1F (designed binder)
chain: STKKTQLLAEHALLDALMMLNLLPEPNEKLNRIITTMQSWIFTGKIDGDGAQELAKEVEELEQEHEKRGIDVEDYASNLKVILLELA
notes: also called G1_ne02_40_1F
B3: G2_neo2_40_1F_dsn36 (designed binder)
chain: PKKKIQLLAEHALLDALMILNIVKTNSQNAEEKLEDYASNVEVILEEIARLMESGDQKDEAEKAKRMKEWMKRIKTTASEDEQEEMANRIITLLQSWIFS
notes: E. coli, N-terminal 6xHis tag and thrombin site

Key:
[1] = target: T1, human IL-2Rβγc on human cells (YT-1 NK …); experiment: cell-based or functional assay
[2] = target: T2, mouse IL-2Rβγc on murine cells (CTLL-2 …); experiment: cell-based or functional assay
[3] = target: T3, human IL-2 receptor β subunit (hIL-2Rβ); experiment: SPR, equilibrium titration; biotinylated IL-2Rβ on streptavidin chip
[4] = target: T4, mouse IL-2 receptor β subunit (mIL-2Rβ); experiment: as above

Binder	EC50 (CD25-) pSTAT5p, human NK (YT, CD25-) cells [1] [nM]	EC50 (CD25+) pSTAT5, murine T (CTLL-2, CD25+) cells [2] [nM]	Kd [3] [nM]	Kd [4] [nM]
B1	39	0.003	4950	1500
B2	0.09	0.2	2.6	486
B3	0.12	1.36	27.6	2430
